In the supplement of paper PMC5998384:

Tests used:
HeLa Kyoto [1] = assay: solubility in G1/S (NP-40 vs SDS abundance) (log2 ratio); higher = more soluble; conditions: cell cycle stage: G1/S
HeLa Kyoto [2] = assay: solubility change mitosis vs G1/S (difference of NP-40 vs SDS log2 ratios) (log2 ratio difference); higher = more soluble in mitosis
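For solubility change mitosis vs G1/S (difference of NP-40 vs SDS log2 ratios) in this document: synchronized HeLa Kyoto cells (double thymidine block for G1/S, nocodazole release for mitosis), protein amounts in NP-40 versus SDS lysates quantified by mass spectrometry, three biological replicates.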
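For solubility in G1/S (NP-40 vs SDS abundance) in this document: HeLa Kyoto cells arrested at G1/S by double thymidine block, proteins quantified by TMT10plex mass spectrometry in mild NP-40 versus SDS extracts, three biological replicates.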

“METSSMLSSLNDECKSDNYIEPHYKEWYRVAIDILIEHGLEAYQEFLVQERVSDFLAEEEINYILKNVQKVAQSTAHGTDDSCDDTLSSGTYWPVESDVEAPNLDLGWPYVMPGLLGGTHIDLLFHPPRAHLLTIKETIRKMIKEARKVIALVMDIFTDVDIFKEIVEASTRGVSVYILLDESNFNHFLNMTEKQGCSVQRLRNIRVRTVKGQDYLSKTGAKFHGKMEQKFLLVDCQKVMYGSYSYMWSFEKAHLSMVQIITGQLVESFDEEFRTLYARSCVPSSFAQEESARVKHGKALWENGTYQHSVSSLASVSSQRNLFGRQDKIHKLDSSYFKNRGIYTLNEHDKYNIRSHGYKPHFVPNFNGPNAIRQFQPNQINENWKRHSYAGEQPETVPYLLLNRALNRTNNPPGNWKKPSDSLSVASSSREGYVSHHNTPAQSFANRLAQRKTTNLADRNSNVRRSFNGTDNHIRFLQQRMPTLEHTTKSFLRNWRIESYLNDHSEATPDSNGSALGDRFEGYDNPENLKANALYTHSRLRSSLVFKPTLPEQKEVNSCTTGSSNSTIIGSQGSETPKEVPDTPTNVQHLTDKPLPESIPKLPLQSEAPKMHTLQVPENHSVALNQTTNGHTESNNYIYKTLGVNKQTENLKNQQTENLLKRRSFPLFDNSKANLDPGNSKHYVYSTLTRNRVRQPEKPKEDLLKSSKSMHNVTHNLEEDEEEVTKRNSPSGTTTKSVSIAALLDVNKEESNKELASKKEVKGSPSFLKKGSQKLRSLLSLTPDKKENLSKNKAPAFYRLCSSSDTLVSEGEENQKPKKSDTKVDSSPRRKHSSSSNSQGSIHKSKEDVTVSPSQEINAPPDENKRTPSPGPVESKFLERAGDASAPRFNTEQIQYRDSREINAVVTPERRPTSSPRPTSSELLRSHSTDRRVYSRFEPFCKIESSIQPTSNMPNTSINRPEIKSATMGNSYGRSSPLLNYNTGVYRSYQPNENKFRGFMQKFGNFIHKNK [FAM83B]” was tested, and the “solubility in G1/S (log2)” value (HeLa Kyoto [1]) was -1.47 and the “solubility change mitosis (log2)” value (HeLa Kyoto [2]) was 0.383.
In the case of “MAGPLRAPLLLLAILAVALAVSPAAGSSPGKPPRLVGGPMDASVEEEGVRRALDFAVGEYNKASNDMYHSRALQVVRARKQIVAGVNYFLDVELGRTTCTKTQPNLDNCPFHDQPHLKRKAFCSFQIYAVPWQGTMTLSKSTCQDA [CST3]”, the “solubility in G1/S (log2)” value (HeLa Kyoto [1]) is reported as -0.0401 and the “solubility change mitosis (log2)” value (HeLa Kyoto [2]) is reported as 0.378.
In the case of MGA, the “solubility in G1/S (log2)” value (HeLa Kyoto [1]) is reported as -0.38 and the “solubility change mitosis (log2)” value (HeLa Kyoto [2]) is reported as 0.233.
For “MMAQSNMFTVADVLSQDELRKKLYQTFKDRGILDTLKTQLRNQLIHELMHPVLSGELQPRSISVEGSSLLIGASNSLVADHLQRCGYEYSLSVFFPESGLAKEKVFTMQDLLQLIKINPTSSLYKSLVSGSDKENQKGFLMHFLKELAEYHQAKESCNMETQTSSTFNRDSLAEKLQLIDDQFADAYPQRIKFESLEIKLNEYKREIEEQLRAEMCQKLKFFKDTEIAKIKMEAKKKYEKELTMFQNDFEKACQAKSEALVLREKSTLERIHKHQEIETKEIYAQRQLLLKDMDLLRGREAELKQRVEAFELNQKLQEEKHKSITEALRRQEQNIKSFEETYDRKLKNELLKYQLELKDDYIIRTNRLIEDERKNKEKAVHLQEELIAINSKKEELNQSVNRVKELELELESVKAQSLAITKQNHMLNEKVKEMSDYSLLKEEKLELLAQNKLLKQQLEESRNENLRLLNRLAQPAPELAVFQKELRKAEKAIVVEHEEFESCRQALHKQLQDEIEHSAQLKAQILGYKASVKSLTTQVADLKLQLKQTQTALENEVYCNPKQSVIDRSVNGLINGNVVPCNGEISGDFLNNPFKQENVLARMVASRITNYPTAWVEGSSPDSDLEFVANTKARVKELQQEAERLEKAFRSYHRRVIKNSAKSPLAAKSPPSLHLLEAFKNITSSSPERHIFGEDRVVSEQPQVGTLEERNDVVEALTGSAASRLRGGTSSRRLSSTPLPKAKRSLESEMYLEGLGRSHIASPSPCPDRMPLPSPTESRHSLSIPPVSSPPEQKVGLYRRQTELQDKSEFSDVDKLAFKDNEEFESSFESAGNMPRQLEMGGLSPAGDMSHVDAAAAAVPLSYQHPSVDQKQIEEQKEEEKIREQQVKERRQREERRQSNLQEVLERERRELEKLYQERKMIEESLKIKIKKELEMENELEMSNQEIKDKSAHSENPLEKYMKIIQQEQDQESADKSSKKMVQEGSLVDTLQSSDKVESLTGFSHEELDDSW [OFD1]”, the “solubility in G1/S (log2)” value (HeLa Kyoto [1]) was -0.146 and the “solubility change mitosis (log2)” value (HeLa Kyoto [2]) was 0.252.
In the case of “MMDPCSVGVQLRTTNECHKTYYTRHTGFKTLQELSSNDMLLLQLRTGMTLSGNNTICFHHVKIYIDRFEDLQKSCCDPFNIHKKLAKKNLHVIDLDDATFLSAKFGRQLVPGWKLCPKCTQIINGSVDVDTEDRQKRKPESDGRTAKALRSLQFTNPGRQTEFAPETGKREKRRLTKNATAGSDRQVIPAKSKVYDSQGLLIFSGMDLCDCLDEDCLGCFYACPACGSTKCGAECRCDRKWLYEQIEIEGGEIIHNKHAG [ARL14EP]”, the “solubility in G1/S (log2)” value (HeLa Kyoto [1]) is reported as -0.0781 and the “solubility change mitosis (log2)” value (HeLa Kyoto [2]) is reported as -0.0185.
With CHD6 the “solubility in G1/S (log2)” value (HeLa Kyoto [1]) was -0.23 and the “solubility change mitosis (log2)” value (HeLa Kyoto [2]) was -0.0389.
In the case of “MSGRSVRAETRSRAKDDIKKVMAAIEKVRKWEKKWVTVGDTSLRIFKWVPVTDSKEKEKSKSNSSAAREPNGFPSDASANSSLLLEFQDENSNQSSVSDVYQLKVDSSTNSSPSPQQSESLSPAHTSDFRTDDSQPPTLGQEILEEPSLPSSEVADEPPTLTKEEPVPLETQVVEEEEDSGAPPLKRFCVDQPTVPQTASES [BCL7B]”, the “solubility in G1/S (log2)” value (HeLa Kyoto [1]) is reported as 0.295 and the “solubility change mitosis (log2)” value (HeLa Kyoto [2]) is reported as 0.0126.
With “MGLKAAQKTLFPLRSIDDVVRLFAAELGREEPDLVLLSLVLGFVEHFLAVNRVIPTNVPELTFQPSPAPDPPGGLTYFPVADLSIIAALYARFTAQIRGAVDLSLYPREGGVSSRELVKKVSDVIWNSLSRSYFKDRAHIQSLFSFITGTKLDSSGVAFAVVGACQALGLRDVHLALSEDHAWVVFGPNGEQTAEVTWHGKGNEDRRGQTVNAGVAERSWLYLKGSYMRCDRKMEVAFMVCAINPSIDLHTDSLELLQLQQKLLWLLYDLGHLERYPMALGNLADLEELEPTPGRPDPLTLYHKGIASAKTYYRDEHIYPYMYLAGYHCRNRNVREALQAWADTATVIQDYNYCREDEEIYKEFFEVANDVIPNLLKEAASLLEAGEERPGEQSQGTQSQGSALQDPECFAHLLRFYDGICKWEEGSPTPVLHVGWATFLVQSLGRFEGQVRQKVRIVSREAEAAEAEEPWGEEAREGRRRGPRRESKPEEPPPPKKPALDKGLGTGQGAVSGPPRKPPGTVAGTARGPEGGSTAQVPAPTASPPPEGPVLTFQSEKMKGMKELLVATKINSSAIKLQLTAQSQVQMKKQKVSTPSDYTLSFLKRQRKGL [MEN1]” the “solubility in G1/S (log2)” value (HeLa Kyoto [1]) was -0.472 and the “solubility change mitosis (log2)” value (HeLa Kyoto [2]) was 0.197.
With “MWTADEIAQLCYEHYGIRLPKKGKPEPNHEWTLLAAVVKIQSPADKACDTPDKPVQVTKEVVSMGTGTKCIGQSKMRKNGDILNDSHAEVIARRSFQRYLLHQLQLAATLKEDSIFVPGTQKGVWKLRRDLIFVFFSSHTPCGDASIIPMLEFEDQPCCPVFRNWAHNSSVEASSNLEAPGNERKCEDPDSPVTKKMRLEPGTAAREVTNGAAHHQSFGKQKSGPISPGIHSCDLTVEGLATVTRIAPGSAKVIDVYRTGAKCVPGEAGDSGKPGAAFHQVGLLRVKPGRGDRTRSMSCSDKMARWNVLGCQGALLMHLLEEPIYLSAVVIGKCPYSQEAMQRALIGRCQNVSALPKGFGVQELKILQSDLLFEQSRSAVQAKRADSPGRLVPCGAAISWSAVPEQPLDVTANGFPQGTTKKTIGSLQARSQISKVELFRSFQKLLSRIARDKWPHSLRVQKLDTYQEYKEAASSYQEAWSTLRKQVFGSWIRNPPDYHQFK [ADAT1]” the “solubility in G1/S (log2)” value (HeLa Kyoto [1]) was 0.316 and the “solubility change mitosis (log2)” value (HeLa Kyoto [2]) was -0.0783.
With “MGSELIGRLAPRLGLAEPDMLRKAEEYLRLSRVKCVGLSARTTETSSAVMCLDLAASWMKCPLDRAYLIKLSGLNKETYQSCLKSFECLLGLNSNIGIRDLAVQFSCIEAVNMASKILKSYESSLPQTQQVDLDLSRPLFTSAALLSACKILKLKVDKNKMVATSGVKKAIFDRLCKQLEKIGQQVDREPGDVATPPRKRKKIVVEAPAKEMEKVEEMPHKPQKDEDLTQDYEEWKRKILENAASAQKATAE [ORC6]” the “solubility in G1/S (log2)” value (HeLa Kyoto [1]) was 0.47 and the “solubility change mitosis (log2)” value (HeLa Kyoto [2]) was -0.389.
